In US20060204974A1:

Target: rat angiotensin type 1a receptor (AT1aR) (rat) (UniProt P25095)
Experiment: cell-based or functional assay

Chain of UniProt P25095 (P25095 whole entry): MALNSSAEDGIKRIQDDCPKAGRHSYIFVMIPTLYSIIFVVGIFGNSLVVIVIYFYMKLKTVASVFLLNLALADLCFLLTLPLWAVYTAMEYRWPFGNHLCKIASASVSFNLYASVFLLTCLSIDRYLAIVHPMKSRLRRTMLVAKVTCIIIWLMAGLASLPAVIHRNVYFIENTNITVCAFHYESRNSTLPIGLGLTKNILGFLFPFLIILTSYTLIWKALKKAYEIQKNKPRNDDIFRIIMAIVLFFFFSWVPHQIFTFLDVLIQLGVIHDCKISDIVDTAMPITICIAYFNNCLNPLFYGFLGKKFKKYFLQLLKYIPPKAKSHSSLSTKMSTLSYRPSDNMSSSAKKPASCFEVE

- Ang II (100 nM) stimulated inositol phosphate production, Ang II-basal (cpm), CHO cells stably expressing E1,2,3: 260 cpm
- Ang II (100 nM) stimulated inositol phosphate production, Ang II-basal (cpm), CHO cells stably expressing E1,3: 1320 cpm
- Ang II-induced IP production (cpm), 100 nM Ang II, CHO clones stably expressing QM: 1640 cpm
- Ang II-induced IP production (cpm), 100 nM Ang II, CHO clones stably expressing WT: 322 cpm
- angiotensin II/basal inositol phosphate accumulation, 100 nM angiotensin II for 20 min, A10 cells transiently transfected with E2 plasmid (ratio (angiotensin II/basal)): 1.35
- angiotensin II/basal inositol phosphate accumulation, 100 nM angiotensin II for 20 min, A10 cells transiently transfected with ΔE2 plasmid (ratio (angiotensin II/basal)): 1.8
Substance: Angiotensin II (from UniProt P01019 25-476) (peptide)
